Molecular target: tropomyosin of native porcine cardiac thin filaments (porcine (endogenous in pig heart)) (UniProt P42639)
Assay: cryo-EM structure

frequency of segments with C1 in the C1-S position (C1 tethers actin and Tm): 36%
Substance: C0C1 fragment of human cardiac myosin binding protein-C (C0-PA-C1) (domain or fragment)

Reference: paper PMC6281772
